Experimental data reported in patent US20220153832A1 (PIONYR IMMUNOTHERAPEUTICS, published 2022).
Each block holds one binder with its values, some of them ahead of it.

Assays:
[1] = target: T1, Cynomolgus MARCO, full length, on cells (cynomolgus, UniProt A0A2K5X0Z2 1-519); experiment: flow cytometry, 293T (CyMARCO)
T1 construct: whole, on cells; also called cyno MARCO; CyMARCO
T1 sequence: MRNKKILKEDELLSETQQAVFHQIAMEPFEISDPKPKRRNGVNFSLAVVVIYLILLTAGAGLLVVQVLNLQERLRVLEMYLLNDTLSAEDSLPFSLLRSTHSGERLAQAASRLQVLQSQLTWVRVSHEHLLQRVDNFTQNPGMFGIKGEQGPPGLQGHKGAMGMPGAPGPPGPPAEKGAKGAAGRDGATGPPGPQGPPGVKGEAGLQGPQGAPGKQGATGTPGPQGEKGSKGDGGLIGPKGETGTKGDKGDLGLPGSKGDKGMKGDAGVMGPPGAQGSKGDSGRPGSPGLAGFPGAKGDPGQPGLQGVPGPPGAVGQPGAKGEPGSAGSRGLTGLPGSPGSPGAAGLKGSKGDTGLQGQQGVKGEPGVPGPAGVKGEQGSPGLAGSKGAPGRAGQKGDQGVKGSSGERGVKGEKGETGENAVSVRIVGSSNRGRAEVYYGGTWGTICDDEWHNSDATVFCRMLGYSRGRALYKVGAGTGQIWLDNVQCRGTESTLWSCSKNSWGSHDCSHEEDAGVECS
Protocol: Supernatants were removed and cell pellets were resuspended in Ca²⁺+ and Mg²⁺+ Dulbecco's phosphate-buffered saline (D-PBS) at 1×10⁶ cells/ml. 100,000 cells/well were plated onto U-bottom 96-well plates for staining and all centrifugation steps were performed at 1500 rpm at 4° C. for 5 min and samples were kept protected from light throughout the protocol. Cells were pelleted and resuspended in 100 μl of Zombie NIR viability dye (BioLegend) prepared by diluting Zombie NIR dimethyl sulfoxide (DMSO) stock 1000-fold in D-PBS. […] Flow cytometry data were analyzed using FlowJo software (version 10.6.1) and data were processed and further analyzed in Microsoft Excel and GraphPad Prism software (version 8). Half-maximal effective concentrations (EC₅₀) were calculated based on geometric mean fluorescence intensities (gMFI). In case when the plates were not able to be analyzed on the cytometer, cells were pelleted after the washes and fixed in 100 μl of 2% paraformaldehyde (PFA), prepared by diluting the 16% (w/v) stock (Thermo Fisher) in DPBS, for 15 min at RT. […]

[2] = target: T2, mVar3 (RG3028) (mouse, UniProt Q60754 150-518); experiment: binding to variant proteins, data not shown
T2 construct: Mouse MARCO with the human residues Q452, Y472 and K473 (already in the entry)
T2 chain: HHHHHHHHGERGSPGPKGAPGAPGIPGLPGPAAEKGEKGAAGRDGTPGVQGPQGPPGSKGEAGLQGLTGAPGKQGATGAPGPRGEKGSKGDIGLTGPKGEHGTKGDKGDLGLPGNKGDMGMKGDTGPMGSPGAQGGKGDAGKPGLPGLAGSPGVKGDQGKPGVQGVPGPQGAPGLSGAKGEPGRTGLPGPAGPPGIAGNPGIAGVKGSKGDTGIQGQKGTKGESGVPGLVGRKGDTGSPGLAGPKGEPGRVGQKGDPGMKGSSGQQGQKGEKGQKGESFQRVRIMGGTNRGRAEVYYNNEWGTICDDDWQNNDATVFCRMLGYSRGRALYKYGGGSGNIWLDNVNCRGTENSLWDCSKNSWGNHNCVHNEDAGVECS
Outline: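 Binding to MARCO variant proteins was measured by biolayer interferometry at 37° C in ProbeLife kinetics buffer. Antibodies (200 nM) were captured on anti-mouse or anti-human Fc probes for 120 s between 60 s baselines. This was followed by association with 200 nM variant antigen and 5-10 minutes dissociation.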

[3] = target: T3, N-terminally polyhistidine tagged human MARCO ECD (147-520), recombinant (human, UniProt Q9UEW3 147-520); experiment: Biacore, recombinant human MARCO; control sample
T3 construct: also called PI-RG-3000; recombinant human MARCO; not shown: N-terminal polyhistidine tag
T3 sequence: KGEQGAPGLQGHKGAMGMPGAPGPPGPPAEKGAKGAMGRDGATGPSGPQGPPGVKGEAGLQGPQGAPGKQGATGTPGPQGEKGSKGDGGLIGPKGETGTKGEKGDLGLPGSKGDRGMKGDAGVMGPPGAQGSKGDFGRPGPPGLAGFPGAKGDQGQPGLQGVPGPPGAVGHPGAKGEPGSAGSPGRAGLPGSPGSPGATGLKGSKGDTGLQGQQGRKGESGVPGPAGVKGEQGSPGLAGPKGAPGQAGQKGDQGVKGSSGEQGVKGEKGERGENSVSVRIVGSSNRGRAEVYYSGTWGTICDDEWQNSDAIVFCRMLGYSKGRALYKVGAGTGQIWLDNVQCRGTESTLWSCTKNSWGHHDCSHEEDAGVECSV

EC50 [1]: 510 pM
B1: PI-HX-3031 (antibody)
heavy: QVQLKESGPGLVQPSQTLSLTCTVSGFSLTSYHVSWVRQPPGKGLEWMGAIWTGGSIAYNSLLKSRLSISRDTSKSQVFLKMNSLQTEDTATYYCARDLSDYYSSYTSFDYWGQGVMVTVSTAETTAPSVYPLAPGTALKSNSMVTLGCLVKGYFPEPVTVTWNSGALSSGVHTFPAVLQSGLYTLTSSVTVPSSTWSSQAVTCNVAHPASSTKVDKKIVPRECNPCGCTGSEVSSVFIFPPKTKDVLTITLTPKVTCVVVDISQNDPEVRFSWFIDDVEVHTAQTHAPEKQSNSTLRSVSELPIVHRDWLNGKTFKCKVNSGAFPAPIEKSISKPEGTPRGPQVYTMAPPKEEMTQSQVSITCMVKGFYPPDIYTEWKMNGQPQENYKNTPPTMDTDGSYFLYSKLNVKKETWQQGNTFTCSVLHEGLHNHHTEKSLSHSP
light: DIQMTQSPASLSTSLGETVSIECLASEGISNDLAWYQQKSGKSPQLLIYAASRLQDGVPSRFSGSGSGTRYSLKISGMQPEDEADYFCQQSYKYPLTFGSGTKLEIKRADAAPTVSIFPPSTEQLATGGASVVCLMNNFYPRDISVKWKIDGTERRDGVLDSVTDQDSKDSTYSMSSTLSLTKADYESHNLYTCEVVHKTSSSPVVKSFNRNEC
notes: Parental rat hybridoma, rat IgG2a

binding result [2]: binds
B2: PI-3010-AB (antibody, human IgG1, kappa)
heavy: not shown
light: DIQMTQSPASLSTSLGETVSIECLASEGISNDLAWYQQKSGKSPQLLIYAASRLQDGVPSRFSGSGSGTRYSLKISGMQPEDEADYFCQQSYKYPLTFGSGTKLEIKRTVAAPSVFIFPPSDEQLKSGTASVVCLLNNFYPREAKVQWKVDNALQSGNSQESVTEQDSKDSTYSLSSTLTLSKADYEKHKVYACEVTHQGLSSPVTKSFNRGEC

Kd [3]: 970 pM
B3: PI-3015-AB (antibody, human IgG1, kappa)
heavy: not shown
light: DIQMTQSPSSLSASVGDRVTITCRASEGISNDLAWYQQKPGKAPKLLIYAASRLQSGVPSRFSGSGSGTDYTLTISSMQPEDFATYYCQQSYKYPLTFGQGTKLEIKRTVAAPSVFIFPPSDEQLKSGTASVVCLLNNFYPREAKVQWKVDNALQSGNSQESVTEQDSKDSTYSLSSTLTLSKADYEKHKVYACEVTHQGLSSPVTKSFNRGEC
